Measurements as given in US6759384 (AVENTIS PHARMACEUTICALS, dated 2004).
Non-standard residues stand in square brackets, D forms with d. No end group written: not given here. *: point of attachment. (pOH)C6H4‑OCH(CH3)CO = N-terminal acyl cap: 4-hydroxyphenyl-O-CH(CH3)-C(=O)- (2-(4-hydroxyphenoxy)propionyl), CC(Oc1ccc(O)cc1)C(=O)*; (pOH)C6H4‑CH2CHOH‑CO = N-terminal acyl cap: 4-hydroxyphenyl-CH2-CH(OH)-C(=O)- (4-hydroxyphenyllactyl); Ala(1-Me-3-pyridinium) = C[n+]1cccc(C[C@H](N)C(=O)O)c1; Phe(4-Cl) = N[C@@H](Cc1ccc(Cl)cc1)C(=O)O; Phe(4-F) = N[C@@H](Cc1ccc(F)cc1)C(=O)O; dTic = O=C(O)[C@H]1Cc2ccccc2CN1; Dab = NCC[C@H](N)C(=O)O; Tfa = O=C(C(F)(F)F)*; βAla = NCCC(=O)O; Sar = CNCC(=O)O; For = O=C*

B1: D-Tic-I-R-L-A-A-F-T-NH2 (peptide)
peptide: [dTic]IRLAAFT-NH2
modifications: N-terminus assumed
SMILES: CC[C@H](C)[C@H](NC(=O)[C@H]1Cc2ccccc2CN1)C(=O)N[C@@H](CCCNC(=N)N)C(=O)N[C@@H](CC(C)C)C(=O)N[C@@H](C)C(=O)N[C@@H](C)C(=O)N[C@@H](Cc1ccccc1)C(=O)N[C@H](C(N)=O)[C@@H](C)O
B2: βAla-Y-I-R-G-NH2 (peptide)
peptide: [βAla]YIRG-NH2
modifications: N-terminus assumed
SMILES: CC[C@H](C)[C@H](NC(=O)[C@H](Cc1ccc(O)cc1)NC(=O)CCN)C(=O)N[C@@H](CCCNC(=N)N)C(=O)NCC(N)=O
B3: Ac-Y-I-R-L-P-Dab(Ac-Y-I-R-L-P)-OH (peptide)
peptide: Ac-YIRLP[Dab]-OH
chain: Ac-YIRLP
modifications: also: branched: chain 2 attached to the Dab6 side-chain N
notes: branched peptide
B4: F(pCl)-I-R-I-Sar-NH2 (peptide)
peptide: [Phe(4-Cl)]IRI[Sar]-NH2
modifications: N-terminus assumed
SMILES: CC[C@H](C)[C@H](NC(=O)[C@@H](N)Cc1ccc(Cl)cc1)C(=O)N[C@@H](CCCNC(=N)N)C(=O)N[C@H](C(=O)N(C)CC(N)=O)[C@@H](C)CC
B5: I-H-L-W-y-I-R-L-P-NH2 (peptide)
peptide: IHLW[dY]IRLP-NH2
modifications: N-terminus assumed
SMILES: CC[C@H](C)[C@H](N)C(=O)N[C@@H](Cc1c[nH]cn1)C(=O)N[C@@H](CC(C)C)C(=O)N[C@@H](Cc1c[nH]c2ccccc12)C(=O)N[C@H](Cc1ccc(O)cc1)C(=O)N[C@H](C(=O)N[C@@H](CCCNC(=N)N)C(=O)N[C@@H](CC(C)C)C(=O)N1CCC[C@H]1C(N)=O)[C@@H](C)CC
B6: C-Y-I-R-L-C-NH2 (peptide)
peptide: CYIRLC-NH2
modifications: also: cyclisation unknown (underlining lost)
notes: may be cyclic (disulfide); underlining lost
B7: Ac-Y-I-PalMe(3)-L-P-NH2 (peptide)
peptide: Ac-YI[Ala(1-Me-3-pyridinium)]LP-NH2
SMILES: CC[C@H](C)[C@H](NC(=O)[C@H](Cc1ccc(O)cc1)NC(C)=O)C(=O)N[C@@H](Cc1ccc[n+](C)c1)C(=O)N[C@@H](CC(C)C)C(=O)N1CCC[C@H]1C(N)=O
B8: F(pF)-I-R-L-P-NH2 (peptide)
peptide: [Phe(4-F)]IRLP-NH2
modifications: N-terminus assumed
SMILES: CC[C@H](C)[C@H](NC(=O)[C@@H](N)Cc1ccc(F)cc1)C(=O)N[C@@H](CCCNC(=N)N)C(=O)N[C@@H](CC(C)C)C(=O)N1CCC[C@H]1C(N)=O
notes: also called Phe(pF)-I-R-L-P-NH
B9: (pOH)C6H4-OCH(CH3)CO-I-R-L-P-NH2 (peptide)
peptide: {(pOH)C6H4‑OCH(CH3)CO}-IRLP-NH2
SMILES: CC[C@H](C)[C@H](NC(=O)C(C)Oc1ccc(O)cc1)C(=O)N[C@@H](CCCNC(=N)N)C(=O)N[C@@H](CC(C)C)C(=O)N1CCC[C@H]1C(N)=O

target: human factor Xa (Enzyme Research Laboratories, Inc.) (human, UniProt P00742 41-179; P00742 235-488, limits assumed); assay: chromogenic FXa inhibition
Protocol: TBS-P buffer (50 mM Tris-Cl, pH 7.8, 200 mM NaCl, 0.05% (w/v) PEG-8000, 0.02% (w/v) NaN_3) was used for this assay. The IC$50$ was determined by combining in appropriate wells of a Costar half-area microtiter plate 25 μl human factor Xa (Enzyme Research Laboratories, Inc.; South Bend Ind.) in TBS-P; 40 μl 10% (v/v) DMSO in TBS-P (uninhibited control) or various concentrations of a peptide to be tested diluted in 10% (v/v) DMSO in TBS-P; and substrate S-2765 (Nα-benzyloxycarbonyl-D-Arg-Gly-L-Arg-p-nitroanilide; Kabi Pharmacia, Inc.; Franklin Ohio) in TBS-P.
The assays were performed by pre-incubating the peptide inhibitor plus enzyme for 10 min, then the assay was initiated by adding substrate to obtain a final volume of 100 μl. The initial velocity of chromogenic substrate hydrolysis was measured by the change in absorbance at 405 nm using a Bio-tek Instruments kinetic plate reader (Ceres UV900HDi) at 25° C. during the linear portion of the time course (usually 1–5 min after addition of substrate). The concentration of inhibitor that caused a 50% decrease in the rate of substrate hydrolysis was predicted by linear regression after plotting the relative rates of hydrolysis (compared to the uninhibited control) versus the log of the peptide concentration. The enzyme concentration was 0.5 nM and substrate concentration was 140 μM.

human factor Xa (Enzyme Research Laboratories, Inc.), sequence (P00742 41-179 limits assumed, chain 1 of 2): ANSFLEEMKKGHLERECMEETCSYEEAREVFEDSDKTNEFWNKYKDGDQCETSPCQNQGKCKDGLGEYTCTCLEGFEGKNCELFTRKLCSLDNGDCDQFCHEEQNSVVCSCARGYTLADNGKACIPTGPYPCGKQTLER
human factor Xa (Enzyme Research Laboratories, Inc.), sequence (P00742 235-488 limits assumed, chain 2 of 2): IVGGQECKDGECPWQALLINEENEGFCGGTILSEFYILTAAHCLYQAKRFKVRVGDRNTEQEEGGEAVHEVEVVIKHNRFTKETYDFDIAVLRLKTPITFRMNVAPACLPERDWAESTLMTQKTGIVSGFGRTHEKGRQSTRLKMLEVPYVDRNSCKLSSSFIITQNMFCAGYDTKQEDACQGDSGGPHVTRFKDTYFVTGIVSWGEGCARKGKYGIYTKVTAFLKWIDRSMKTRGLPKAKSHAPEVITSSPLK

Ki	Binder
< 100 µM	FIRLPHYG-NH2 [F-I-R-L-P-H-Y-G-NH2]
< 100 µM	GYIRLPSQ-NH2 [G-Y-I-R-L-P-S-Q-NH2]
< 100 µM	{CH3‑SO2}-YIRLP-NH2 [CH3-SO2-Y-I-R-L-P-NH2]
< 100 µM	Ac-YKRLE-NH2 (also: cyclisation unknown (underlining lost), may be cyclic; underlining lost) [Ac-Y-K-R-L-E-NH2]
< 100 µM	GYIRLPAM-NH2 [G-Y-I-R-L-P-A-M-NH2]
< 100 µM	[βAla]YIRG (also: cyclisation unknown (underlining lost), may be cyclic; underlining lost) [βAla-Y-I-R-G]
< 100 µM	B1
< 100 µM	Ac-YIRLP-NH2 (also: reduced pseudo peptide bond ψ(CH2NH) between I2 and R3) [Ac-Y-I-{ψ(CH2NH)}-R-L-P-NH2]
< 100 µM	FIRLYVWN-NH2 [F-I-R-L-Y-V-W-N-NH2]
< 100 µM	EYIRLK-NH2 (also: cyclisation unknown (underlining lost), may be cyclic; underlining lost) [E-Y-I-R-L-K-NH2]
< 100 µM	{CClF2‑CO}-YIRLP-NH2 [CClF2-CO-Y-I-R-L-P-NH2]
< 100 µM	For-[dY]IRLP-NH2 [For-y-I-R-L-P-NH2]
< 100 µM	B2
< 100 µM	Ac-YIRLAAFT-NH2 [Ac-Y-I-R-L-A-A-F-T-NH2]
< 100 µM	EYIRLPK-NH2 (also: cyclisation unknown (underlining lost), may be cyclic; underlining lost) [E-Y-I-R-L-P-K-NH2]
< 100 µM	{CF3‑CF2CO}-YIRLP-NH2 [CF3-CF2CO-Y-I-R-L-P-NH2]
< 100 µM	Ac-YIRL [Ac-Y-I-R-L]
< 100 µM	Tfa-[N(iBu)Y]IRG-NH2 [Tfa-(iBu)Y-I-R-G-NH2]
< 100 µM	Ac-YNRL-NH2 [Ac-Y-N-R-L-NH2]
< 100 µM	YIRI-NH2 [Y-I-R-I-NH2]
< 100 µM	FIRL-NH2 (probably F-I-R-L-NH2) [F-I-R-L-N-H2]
< 100 µM	Ac-YIRI [Ac-Y-I-R-I]
< 100 µM	GGYIRG-NH2 [G-G-Y-I-R-G-NH2]
< 100 µM	YIRLP (N-term Ac; D-Tyr at 1; C-term NH2) [Ac-y-I-R-L-P-NH2]
< 100 µM	B3
< 100 µM	IQLGYIRLP-NH2 [I-Q-L-G-Y-I-R-L-P-NH2]

Ki	Binder
< 100 µM	XIRLP (N,N-diethyl (Et(Et)) on Y1; C-term NH2) [Et(Et)Y-I-R-L-P-NH2]
< 100 µM	B4
< 100 µM	{CH3‑CHCl‑CO}-YIRLP-NH2 [CH3-CHCl-CO-Y-I-R-L-P-NH2]
< 100 µM	{CH3O‑CO}-YIRLP-NH2 [CH3O-CO-Y-I-R-L-P-NH2]
< 100 µM	B5
< 100 µM	GYIRLPPV-NH2 [G-Y-I-R-L-P-P-V-NH2]
< 100 µM	GYIRD-NH2 [G-Y-I-R-D-NH2]
< 100 µM	GYIRF-NH2 [G-Y-I-R-F-NH2]
< 100 µM	GYIRV-NH2 [G-Y-I-R-V-NH2]
< 100 µM	GYIRY-NH2 [G-Y-I-R-Y-NH2]
< 100 µM	GYIRS-NH2 [G-Y-I-R-S-NH2]
< 100 µM	GYIRW-NH2 [G-Y-I-R-W-NH2]
< 100 µM	B6
< 100 µM	B7
< 100 µM	B8
< 100 µM	{(pOH)C6H4‑CH2CH2CO}-IRLA-NH2 [(pOH)C6H4-CH2CH2CO-I-R-L-A-NH2]
< 100 µM	IRLP (N-term (pOH)C6H4-CH2CH2CO; C-term NH2) [(pOH)C6H4-CH2CH2CO-I-R-L-P-NH2]
< 100 µM	B9
< 100 µM	{(pOH)C6H4‑OCH2CO}-IRLP-NH2 [(pOH)C6H4-OCH2CO-I-R-L-P-NH2]
< 100 µM	{(pOH)C6H4‑CH2CHOH‑CO}-IRLP-NH2 [(pOH)C6H4-CH2CHOH-CO-I-R-L-P-NH2]
< 100 µM	{CF2H‑CO}-YIRLP-NH2 [CF2H-CO-Y-I-R-L-P-NH2]
< 100 µM	GYIRLPQT-NH2 [G-Y-I-R-L-P-Q-T-NH2]
< 100 µM	IHLWYIRLP-NH2 [I-H-L-W-Y-I-R-L-P-NH2]
< 100 µM	For-YIRLP-NH2 [For-Y-I-R-L-P-NH2]
< 100 µM	Cl2CHCO-YIRLP-NH2 [Cl2CHCO-Y-I-R-L-P-NH2]
< 100 µM	{CH3CH2‑O‑CO}-YIRLP-NH2 [CH3CH2-O-CO-Y-I-R-L-P-NH2]
